Data set [1] concerns the target T1, Pex1/Pex6 (Pex1-FLAG/His-Pex6) (Saccharomyces cerevisiae, UniProt P24004+P33760).
T1 construct: heterohexamer of alternating Pex1 and Pex6
T1 sequence (P24004 1-1043): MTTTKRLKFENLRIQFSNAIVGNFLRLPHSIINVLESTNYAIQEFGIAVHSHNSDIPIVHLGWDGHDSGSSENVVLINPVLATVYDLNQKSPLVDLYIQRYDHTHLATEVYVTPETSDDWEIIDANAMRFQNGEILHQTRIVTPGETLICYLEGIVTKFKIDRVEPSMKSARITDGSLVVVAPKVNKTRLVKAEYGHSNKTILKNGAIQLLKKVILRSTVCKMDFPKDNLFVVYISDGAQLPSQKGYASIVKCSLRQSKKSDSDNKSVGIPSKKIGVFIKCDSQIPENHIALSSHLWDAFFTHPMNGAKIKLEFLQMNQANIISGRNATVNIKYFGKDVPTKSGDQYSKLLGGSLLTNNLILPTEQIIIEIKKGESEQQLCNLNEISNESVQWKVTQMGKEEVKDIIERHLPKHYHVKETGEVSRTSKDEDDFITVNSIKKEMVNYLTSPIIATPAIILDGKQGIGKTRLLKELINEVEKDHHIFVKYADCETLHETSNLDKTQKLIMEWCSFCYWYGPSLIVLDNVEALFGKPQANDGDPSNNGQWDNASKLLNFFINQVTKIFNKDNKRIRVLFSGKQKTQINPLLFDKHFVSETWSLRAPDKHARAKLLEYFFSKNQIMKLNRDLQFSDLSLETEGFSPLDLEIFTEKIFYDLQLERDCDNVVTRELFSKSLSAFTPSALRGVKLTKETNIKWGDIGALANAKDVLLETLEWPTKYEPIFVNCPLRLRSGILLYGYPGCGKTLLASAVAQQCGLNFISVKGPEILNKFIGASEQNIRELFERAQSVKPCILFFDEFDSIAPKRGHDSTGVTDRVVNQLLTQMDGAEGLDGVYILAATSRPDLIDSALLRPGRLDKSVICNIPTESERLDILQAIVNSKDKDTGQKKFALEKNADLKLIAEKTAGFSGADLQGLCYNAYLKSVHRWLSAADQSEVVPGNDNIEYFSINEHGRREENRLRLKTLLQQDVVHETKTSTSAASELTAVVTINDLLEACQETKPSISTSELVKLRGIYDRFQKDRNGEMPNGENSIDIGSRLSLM
T1 sequence (P33760 1-1030): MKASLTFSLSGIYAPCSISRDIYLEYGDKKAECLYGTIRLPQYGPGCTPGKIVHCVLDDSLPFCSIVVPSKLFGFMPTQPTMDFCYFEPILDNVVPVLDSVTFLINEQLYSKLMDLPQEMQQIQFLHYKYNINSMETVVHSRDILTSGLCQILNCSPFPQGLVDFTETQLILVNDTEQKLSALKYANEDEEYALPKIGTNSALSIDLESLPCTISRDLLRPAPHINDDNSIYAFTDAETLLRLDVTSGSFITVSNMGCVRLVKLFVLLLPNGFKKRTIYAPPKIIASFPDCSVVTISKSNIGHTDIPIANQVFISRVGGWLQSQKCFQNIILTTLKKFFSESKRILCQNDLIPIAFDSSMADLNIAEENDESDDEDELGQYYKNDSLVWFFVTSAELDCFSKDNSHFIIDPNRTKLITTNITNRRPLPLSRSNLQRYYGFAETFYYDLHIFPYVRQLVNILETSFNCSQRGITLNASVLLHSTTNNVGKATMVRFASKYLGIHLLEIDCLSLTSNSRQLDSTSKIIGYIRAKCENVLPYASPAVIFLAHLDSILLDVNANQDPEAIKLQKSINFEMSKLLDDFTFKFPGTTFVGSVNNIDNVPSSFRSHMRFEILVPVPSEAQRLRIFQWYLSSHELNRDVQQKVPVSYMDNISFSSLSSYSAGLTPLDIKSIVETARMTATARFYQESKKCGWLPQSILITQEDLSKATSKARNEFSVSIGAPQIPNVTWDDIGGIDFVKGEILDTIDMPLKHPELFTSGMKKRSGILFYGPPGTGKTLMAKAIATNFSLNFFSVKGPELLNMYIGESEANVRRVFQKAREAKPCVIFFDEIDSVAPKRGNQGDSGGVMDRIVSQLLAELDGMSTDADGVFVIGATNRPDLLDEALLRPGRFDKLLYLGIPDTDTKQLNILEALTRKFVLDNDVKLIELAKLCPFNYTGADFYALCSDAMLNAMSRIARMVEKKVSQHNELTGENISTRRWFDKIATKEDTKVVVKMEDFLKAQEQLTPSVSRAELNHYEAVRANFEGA
In words: cryo-EM structure, ~[…] Å D1, ~[…]-9 Å D2. The class given is binding. To be noted: 1 mM ATP, pH 7.6, 10 mM MgCl2, with mEOS3.2-Pex15 1-309 (no substrate density in pore); ATP modelled in all D1 sites and four D2 sites.

The target of another data set is T2, Pex1/ΔN1-Pex6 (Saccharomyces cerevisiae, UniProt P24004+P33760).
T2 construct: Pex1 with C-terminal FLAG; Pex6 lacking first 184 residues (N1 domain) with N-terminal His tag; heterohexamer
T2 sequence (P24004 1-1043): T1 sequence (P24004 1-1043)
T2 sequence (P33760 185-1030): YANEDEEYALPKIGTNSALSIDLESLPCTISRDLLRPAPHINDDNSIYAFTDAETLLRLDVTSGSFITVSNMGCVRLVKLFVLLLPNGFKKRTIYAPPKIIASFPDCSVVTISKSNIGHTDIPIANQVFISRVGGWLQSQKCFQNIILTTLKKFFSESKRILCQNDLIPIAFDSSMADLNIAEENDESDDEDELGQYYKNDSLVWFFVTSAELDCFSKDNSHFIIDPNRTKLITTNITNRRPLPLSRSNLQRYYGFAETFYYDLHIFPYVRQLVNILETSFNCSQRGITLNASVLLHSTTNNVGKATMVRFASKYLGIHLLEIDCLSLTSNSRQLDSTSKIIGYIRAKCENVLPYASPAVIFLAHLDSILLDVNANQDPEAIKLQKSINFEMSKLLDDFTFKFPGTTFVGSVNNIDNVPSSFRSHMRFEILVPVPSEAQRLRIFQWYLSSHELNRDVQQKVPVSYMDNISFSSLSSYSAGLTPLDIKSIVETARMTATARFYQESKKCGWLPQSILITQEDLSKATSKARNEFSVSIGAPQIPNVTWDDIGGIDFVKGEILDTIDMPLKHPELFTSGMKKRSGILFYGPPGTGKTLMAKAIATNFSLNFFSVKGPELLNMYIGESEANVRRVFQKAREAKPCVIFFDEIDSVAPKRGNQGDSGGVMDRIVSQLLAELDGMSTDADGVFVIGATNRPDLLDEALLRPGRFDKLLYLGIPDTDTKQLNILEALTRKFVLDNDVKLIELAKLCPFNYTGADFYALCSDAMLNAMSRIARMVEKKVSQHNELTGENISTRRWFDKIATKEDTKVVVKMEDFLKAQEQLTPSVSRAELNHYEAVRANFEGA
Description: enzyme-coupled ATPase assay. The class given is biochemical. To be noted: 5 mM ATP, 30 °C.

Data set [2] has as its system T3, Nc1ncnc2c1ncn2[C@@H]1O[C@H](COP(=O)(O)OP(=O)(O)OP(=O)(O)O)[C@@H](O)[C@H]1O.
T3 construct: heterohexamer of alternating Pex1 and Pex6
Description: purified protein. The class given is biochemical, Saccharomyces cerevisiae. Conditions: 30 °C, ATP varied, hydrolysis in D2 ring.

Another data set addresses T4, His-Pex6 (S. cerevisiae, UniProt P33760 1-1030).
T4 construct: Pex6, AAA-ATPase of S. cerevisiae; no limits stated for the construct; In all experiments it stood in a complex with Pex1-FLAG or a Pex1 variant; also called ScPex6; His-tagged Pex6; source: E. coli BL21*(DE3), co-expressed with Pex1-FLAG or its variants; in lysate, then purified (Ni-NTA, anti-FLAG, Superose6 Increase); not shown: His, N-terminal, kept
T4 sequence: T1 sequence (P33760 1-1030)
Description: cross-linking; photocrosslinking by AzF in Pex1 as above, in the absence or presence of 10 uM Pex15 1-309, Pex15 1-266 or Pex15 43-309; His-Pex6 stood in the complex with the Pex1 variant. To be noted: both partners purified.

As a reminder, the Km is the substrate concentration at which the rate is half of its maximum.

With `Nc1ncnc2c1ncn2[C@@H]1O[C@H](COP(=O)(O)OP(=O)(O)OP(=O)(O)O)[C@@H](O)[C@H]1O` [ATP], the “cryo-EM structure, ~4 Å D1, ~5-9 Å D2” value in data set [1] is given as “we find density for nucleotide in all the D1 ATPase domains, which we modeled as ATP”. Further, on Pex1/ΔN1-Pex6, the “enzyme-coupled ATPase assay” value was “Pex1/ΔN1-Pex6 motor had ATPase activity comparable to WT Pex1/Pex6”.
For “Pex1/Pex6 (Pex1-FLAG/His-Pex6) (Saccharomyces cerevisiae S288C)”, the Km in data set [2] amounted to 230 µM.
For “Pex1/Pex6 (Pex1-FLAG/His-Pex6) (Saccharomyces cerevisiae S288C; P24004:DEL941-967)”, the Km in data set [2] stood at 1030 µM.

B1: Pex15 1-309 (cytosolic domain of Pex15) (domain or fragment, S. cerevisiae, UniProt Q08215 1-309, looked up)
chain: MAASEIMNNLPMHSLDSSLRDLLNDDLFIESDESTKSVNDQRSEVFQECVNLFIKRDIKDCLEKMSEVGFIDITVFKSNPMILDLFVSACDIMPSFTKLGLTLQSEILNIFTLDTPQCIETRKIILGDLSKLLVINKFFRCCIKVIQFNLTDHTEQEEKTLELESIMSDFIFVYITKMRTTIDVVGLQELIEIFIFQVKVKLHHKKPSPNMYWALCKTLPKLSPTLKGLYLSKDVSIEDAILNSIDNKIQKDKAKSKGKQRGVKQKIHHFHEPMLHNSSEEQVKVEDAFNQRTSTDSRLQSTGTAPRKK
notes: also called Pex15's cytosolic domain
Regarding B1, the binding result with His-Pex6 is “binds”.

B2: Pex15 1-266 (domain or fragment, S. cerevisiae, UniProt Q08215 1-266, looked up)
chain: MAASEIMNNLPMHSLDSSLRDLLNDDLFIESDESTKSVNDQRSEVFQECVNLFIKRDIKDCLEKMSEVGFIDITVFKSNPMILDLFVSACDIMPSFTKLGLTLQSEILNIFTLDTPQCIETRKIILGDLSKLLVINKFFRCCIKVIQFNLTDHTEQEEKTLELESIMSDFIFVYITKMRTTIDVVGLQELIEIFIFQVKVKLHHKKPSPNMYWALCKTLPKLSPTLKGLYLSKDVSIEDAILNSIDNKIQKDKAKSKGKQRGVKQK
As for B2, in the data set with His-Pex6, the binding result is given as “binds”.

Source of the values: article PMC10777020, “The N1 domain of the peroxisomal AAA-ATPase Pex6 is required for Pex15 binding and proper assembly with Pex1” (The Journal of Biological Chemistry, 2023).
